Results taken from patent US20120115880A1 (ST JUDE CHILDREN S RESEARCH HOSPITAL, published 2012).

Assays:
[1] = biological target: T1, recombinant MDM2 (amino acid residues 1-188) GST fusion protein (UniProt Q00987 1-188); test: fluorescence polarization assay with recombinant GST-MDM2 (1-188)
T1 construct: range 1-188; Expressed in E. coli BL21(DE3) from pGEX-4-T-1 and eluted as a GST fusion; GST is placed N-terminally by the usual layout of the vector; not shown: glutathione S-transferase tag encoded by pGEX-4-T-1
Method: (§1) Kd's and Kᵢ's were calculated by fitting the data to a single-site binding mode with variable slope (Y=Bottom+(Top−Bottom)/(1+10̂((LogEC50-X)*HillSlope))) using […] PRISM software.

[2] = biological target: T2, recombinant MDMX (amino acid residues 1-185) GST fusion protein (UniProt O15151 1-185); test: fluorescence polarization assay with recombinant GST-MDMX (1-185)
T2 construct: range 1-185; Expressed in E. coli BL21(DE3) from pGEX-4-T-1 and eluted as a GST fusion; GST is placed N-terminally by the usual layout of the vector; also called MDMX-GST; not shown: glutathione S-transferase tag encoded by pGEX-4-T-1
T2 sequence (looked up): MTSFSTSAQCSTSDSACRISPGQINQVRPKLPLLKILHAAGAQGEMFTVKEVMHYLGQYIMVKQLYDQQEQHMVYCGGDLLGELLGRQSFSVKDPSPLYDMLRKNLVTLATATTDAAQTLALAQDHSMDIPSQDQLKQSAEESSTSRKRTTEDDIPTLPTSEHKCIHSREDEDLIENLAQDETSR
Method: as §1

T1 sequence (Q00987 1-188): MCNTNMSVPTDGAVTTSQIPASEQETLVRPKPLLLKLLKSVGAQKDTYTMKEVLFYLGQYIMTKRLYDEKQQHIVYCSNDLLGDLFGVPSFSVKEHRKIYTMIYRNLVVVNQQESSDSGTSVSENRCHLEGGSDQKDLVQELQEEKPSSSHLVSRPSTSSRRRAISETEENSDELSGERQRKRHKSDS

H-GSGSSQETASDLAKLAPEN-OH
binding result [1]: no binding
binding result [2]: no binding
